Molecular target: the molecule itself
Assay: crystal structure; diFe-SulE crystals grown anoxically in 0.1 M bis-Tris pH 5.5, 24% (w/v) PEG 3350 at 293 K, treated with 100 mM H2O2; data at 100 K; space group P63; three data sets at 5%, 10% and 100% beamline flux

B1: Sulfolobus tokodaii sulerythrin reconstituted with ferrous iron (diFe-SulE) (natural protein, UniProt F9VPE5 1-144, looked up)
chain: MKDLKGTKTAENLKQGFIGESMANRRYLYFAKRADEEGYPEIAGLLRSIAEGETAHAFGHLDFIRQGGLTDPATDKPIGTLEQMIESAIAGETYEWTQMYPGFAKVAREEGFPEVAEWFETLARAEKSHAEKFQNVLKQLKGGT
notes: Sulerythrin (SulE), Sulfolobus tokodaii, UniProt F9VPE5, residues 1-145; synthetic gene in pET-28a with an N-terminal Strep-tag and a TEV protease site; Domain-swapped homodimer; each of its two binuclear metal sites holds two iron ions (four in all); Crystals were treated with 100 mM H2O2; not shown: Strep-tag, N-terminal, cleaved
- stoichiometry N: 2
